Here are results for two substances from patent US6355610B2 (priority 1998, dated 2002).

“Also recorded” adds a separate entry of the source. Ends that are not written are not given here.

In one experiment the target is 35S-HaPrPsen (Mesocricetus auratus, UniProt P04273). Type of experiment: biochemical, hamster.
Experiment [1] addresses hamster PrP conversion reaction (PrPsen to PrPres) (Mesocricetus auratus, UniProt P04273). Kind of experiment: biochemical. Set-up: species or system Syrian golden hamster.

Consider Aβ1-40, for which the “peptide induced aggregation of 35S-HaPrPsen” value in the experiment with 35S-HaPrPsen was “caused aggregation and pelleting of 35S-HaPrPsen”. Moreover, the “inhibition of the conversion reaction (in words)” value in experiment [1] is “gave no inhibition of conversion; also recorded: unable to inhibit the PrPsen to PrPres conversion at all concentrations tested”. By IC50 is commonly meant the point on the concentration scale where inhibition reaches its midpoint. Turning to GAVVGGLGGYMLGSAMSR [P119-130], in experiment [1], the IC50 was < 100 µM.
